This assay concerns the target HLA-A*02:01 (Homo sapiens, UniProt P04439, D140Y/D185E/D98H/E176V/E277Q/G131W/G231S/I119V/I121R/I166T/I218V/L300P/L318F/N151K/N90K/P208A/P217A/Q86G/Q94H/R138H/R169H/T345S). The experiment in a line: MHC binding assay (UV-ligand exchange, ELISA of exchange yield). Conditions: binding to HLA-A*02:01, UV-ligand exchange. The method, boiled down: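 Peptide–MHC complexes made by UV-ligand exchange, where a UV-cleavable peptide is replaced by the test peptide. Exchange yield measured by ELISA: complexes diluted 100-fold on streptavidin-coated plates, stabilized complexes detected with HRP anti-β2m, TMB read at 450 nm.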
For “230 (ILVDWLVEV; listed as Homo sapiens) [compound 230]”, the “Peptide exchange (MHC class I binding score, peptide exchange yield)” value (shortened to “Peptide exchange”) was ““+” (≥10% = +)”.

With “231 (FLSPQQPPLLL; listed as Homo sapiens) [compound 231]”, the “Peptide exchange” value is recorded as ““++” (≥20% = ++)”.

On to “232 (ALLEAQDVELYL; listed as Homo sapiens) [compound 232]”, for which the “Peptide exchange” value was ““++” (≥20% = ++)”.

In the case of “233 (VLSETLYEL; listed as Homo sapiens) [compound 233]”, the “Peptide exchange” value is ““++” (≥20% = ++)”.

As to “234 (ALMEDTGRQML; listed as Homo sapiens) [compound 234]”, the “Peptide exchange” value is recorded as ““++” (≥20% = ++)”.

Consider “235 (YLNDLHEVLL; listed as Homo sapiens) [compound 235]”, for which the “Peptide exchange” value was ““++++” (≥75% = ++++)”.

“236 (GLLEAKVSL; listed as Homo sapiens) [compound 236]”: the “Peptide exchange” value is on record as ““+++” (≥50 = +++)”.

As to “237 (ALLEASGTLLL; listed as Homo sapiens) [compound 237]”, the “Peptide exchange” value is given as ““++++” (≥75% = ++++)”.

On to “238 (YLISFQTHI; listed as Homo sapiens) [compound 238]”, for which the “Peptide exchange” value is on record as ““+++” (≥50 = +++)”.

On to “239 (AAFAGKLLSV; listed as Homo sapiens) [compound 239]”, for which the “Peptide exchange” value was ““+++” (≥50 = +++)”.

Take “240 (ILLEQAFYL; listed as Homo sapiens) [compound 240]”: the “Peptide exchange” value is on record as ““+++” (≥50 = +++)”.

“241 (SLVEVNPAYSV; listed as Homo sapiens) [compound 241]”: the “Peptide exchange” value is on record as ““+++” (≥50 = +++)”.

In the case of “242 (AIAYILQGV; listed as Homo sapiens) [compound 242]”, the “Peptide exchange” value is on record as ““++” (≥20% = ++)”.

“243 (LLLNELPSV; listed as Homo sapiens) [compound 243]”: the “Peptide exchange” value is ““+++” (≥50 = +++)”.

“244 (SLFGGTEITI; listed as Homo sapiens) [compound 244]”: the “Peptide exchange” value was ““+++” (≥50 = +++)”.

For the substance “245 (SMIDDLLGV; listed as Homo sapiens) [compound 245]”, the “Peptide exchange” value is ““+++” (≥50 = +++)”.

As for “246 (LLWEVVSQL; listed as Homo sapiens) [compound 246]”, the “Peptide exchange” value is listed as ““+++” (≥50 = +++)”.

Consider “247 (VLLPNDLLEKV; listed as Homo sapiens) [compound 247]”, for which the “Peptide exchange” value is reported as ““+++” (≥50 = +++)”.

On to “248 (FLFPNQYVDV; listed as Homo sapiens) [compound 248]”, for which the “Peptide exchange” value is on record as ““+++” (≥50 = +++)”.

For the substance “249 (LLDGFLVNV; listed as Homo sapiens) [compound 249]”, the “Peptide exchange” value was ““+++” (≥50 = +++)”.

Take “250 (ALSEEGLLVYL; listed as Homo sapiens) [compound 250]”: the “Peptide exchange” value is reported as ““+++” (≥50 = +++)”.

With “251 (ALYTGFSILV; listed as Homo sapiens) [compound 251]”, the “Peptide exchange” value was ““++” (≥20% = ++)”.

Consider “252 (LLIGTDVSL; listed as Homo sapiens) [compound 252]”, for which the “Peptide exchange” value is reported as ““+++” (≥50 = +++)”.

As for “253 (GLDAATATV; listed as Homo sapiens) [compound 253]”, the “Peptide exchange” value is listed as ““++” (≥20% = ++)”.

Take “254 (TLLAFIMEL; listed as Homo sapiens) [compound 254]”: the “Peptide exchange” value is on record as ““+++” (≥50 = +++)”.

As for “255 (VLASYNLTV; listed as Homo sapiens) [compound 255]”, the “Peptide exchange” value is on record as ““+++” (≥50 = +++)”.

With “256 (FLPPEHTIVYI; listed as Homo sapiens) [compound 256]”, the “Peptide exchange” value is listed as ““+++” (≥50 = +++)”.

With “257 (SIFSAFLSV; listed as Homo sapiens) [compound 257]”, the “Peptide exchange” value was ““+++” (≥50 = +++)”.

For “258 (ELAERVPAI; listed as Homo sapiens) [compound 258]”, the “Peptide exchange” value is recorded as ““++” (≥20% = ++)”.

Take “261 (YVLEFLEEI; listed as Homo sapiens) [compound 261]”: the “Peptide exchange” value was ““++” (≥20% = ++)”.

As to “262 (LLWGDLIWL; listed as Homo sapiens) [compound 262]”, the “Peptide exchange” value was ““+++” (≥50 = +++)”.

Consider “263 (LLVSNLDFGV; listed as Homo sapiens) [compound 263]”, for which the “Peptide exchange” value was ““+++” (≥50 = +++)”.

For the substance “264 (SLQEQLHSV; listed as Homo sapiens) [compound 264]”, the “Peptide exchange” value is on record as ““+++” (≥50 = +++)”.

“265 (LLFGGTKTV; listed as Homo sapiens) [compound 265]”: the “Peptide exchange” value is recorded as ““++” (≥20% = ++)”.

Consider “266 (KITDTLIHL; listed as Homo sapiens) [compound 266]”, for which the “Peptide exchange” value is recorded as ““+++” (≥50 = +++)”.

Consider “267 (ALQDFLLSV; listed as Homo sapiens) [compound 267]”, for which the “Peptide exchange” value is ““+++” (≥50 = +++)”.

On to “269 (RVLEVGALQAV; listed as Homo sapiens) [compound 269]”, for which the “Peptide exchange” value was ““++” (≥20% = ++)”.

For “270 (LLLDEEGTFSL; listed as Homo sapiens) [compound 270]”, the “Peptide exchange” value is reported as ““++” (≥20% = ++)”.

As for “271 (LVYPLELYPA; listed as Homo sapiens) [compound 271]”, the “Peptide exchange” value is listed as ““+++” (≥50 = +++)”.

For “272 (ALGNTVPAV; listed as Homo sapiens) [compound 272]”, the “Peptide exchange” value is reported as ““+++” (≥50 = +++)”.

Turning to “273 (NLFQSVREV; listed as Homo sapiens) [compound 273]”, the “Peptide exchange” value is ““++” (≥20% = ++)”.

Turning to “274 (SLLFSLFEA; listed as Homo sapiens) [compound 274]”, the “Peptide exchange” value is given as ““++” (≥20% = ++)”.

With “275 (YLVYILNEL; listed as Homo sapiens) [compound 275]”, the “Peptide exchange” value is ““++” (≥20% = ++)”.

As for “276 (ALFTFSPLTV; listed as Homo sapiens) [compound 276]”, the “Peptide exchange” value is given as ““+++” (≥50 = +++)”.

For “277 (LLPPLESLATV; listed as Homo sapiens) [compound 277]”, the “Peptide exchange” value is ““++” (≥20% = ++)”.

With “278 (QLLDVVLTI; listed as Homo sapiens) [compound 278]”, the “Peptide exchange” value is ““++” (≥20% = ++)”.

Take “279 (ALWGGTQPLL; listed as Homo sapiens) [compound 279]”: the “Peptide exchange” value was ““++” (≥20% = ++)”.

In the case of “280 (VLPDPEVLEAV; listed as Homo sapiens) [compound 280]”, the “Peptide exchange” value is ““+++” (≥50 = +++)”.

With “281 (ILRESTEEL; listed as Homo sapiens) [compound 281]”, the “Peptide exchange” value is on record as ““+++” (≥50 = +++)”.

With “282 (LLADVVPTT; listed as Homo sapiens) [compound 282]”, the “Peptide exchange” value is reported as ““+++” (≥50 = +++)”.

As to “283 (ALYIGDGYVIHLA; listed as Homo sapiens) [compound 283]”, the “Peptide exchange” value is recorded as ““+++” (≥50 = +++)”.

Take “284 (ILLSQTTGV; listed as Homo sapiens) [compound 284]”: the “Peptide exchange” value was ““+++” (≥50 = +++)”.

For the substance “285 (QLLHVGVTV; listed as Homo sapiens) [compound 285]”, the “Peptide exchange” value is on record as ““+++” (≥50 = +++)”.

For the substance “286 (YLFPGIPEL; listed as Homo sapiens) [compound 286]”, the “Peptide exchange” value is on record as ““+++” (≥50 = +++)”.

In the case of “287 (FLNEFFLNV; listed as Homo sapiens) [compound 287]”, the “Peptide exchange” value was ““+++” (≥50 = +++)”.

In the case of “288 (NLINEINGV; listed as Homo sapiens) [compound 288]”, the “Peptide exchange” value is on record as ““+++” (≥50 = +++)”.

Turning to “289 (VLLEIEDLQV; listed as Homo sapiens) [compound 289]”, the “Peptide exchange” value is on record as ““++++” (≥75% = ++++)”.

Regarding “295 (VLDRESPNV; listed as Homo sapiens) [compound 295]”, the “Peptide exchange” value was ““+++” (≥50 = +++)”.

As to “296 (FMEGAIIYV; listed as Homo sapiens) [compound 296]”, the “Peptide exchange” value is recorded as ““+++” (≥50 = +++)”.

As for “297 (VLADIELAQA; listed as Homo sapiens) [compound 297]”, the “Peptide exchange” value is listed as ““+++” (≥50 = +++)”.

Take “298 (VMITKLVEV; listed as Homo sapiens) [compound 298]”: the “Peptide exchange” value is recorded as ““+++” (≥50 = +++)”.

The values are drawn from patent US10047131B2, “Peptides and combination of peptides for use in immunotherapy against ovarian cancer and other cancers” (immatics biotechnologies GmbH, priority 2015, dated 2018).
